Test results reported in US20090305399A1.
Like-named read-outs stand apart in the source and are kept apart here. Ends that are not written are not given here.

How the values were obtained:
Assay in all cases: cell-based or functional assay
[1] = biological target: human Kv1.3 channel (human) (UniProt P22001)
[2] = biological target: human Kv1.1 channel (human) (UniProt Q09470)
[3] = biological target: human Kv1.3 channel (human) (UniProt P22001); remark: listed apart in the source

Chain of human Kv1.3 channel (human) (P22001 whole entry): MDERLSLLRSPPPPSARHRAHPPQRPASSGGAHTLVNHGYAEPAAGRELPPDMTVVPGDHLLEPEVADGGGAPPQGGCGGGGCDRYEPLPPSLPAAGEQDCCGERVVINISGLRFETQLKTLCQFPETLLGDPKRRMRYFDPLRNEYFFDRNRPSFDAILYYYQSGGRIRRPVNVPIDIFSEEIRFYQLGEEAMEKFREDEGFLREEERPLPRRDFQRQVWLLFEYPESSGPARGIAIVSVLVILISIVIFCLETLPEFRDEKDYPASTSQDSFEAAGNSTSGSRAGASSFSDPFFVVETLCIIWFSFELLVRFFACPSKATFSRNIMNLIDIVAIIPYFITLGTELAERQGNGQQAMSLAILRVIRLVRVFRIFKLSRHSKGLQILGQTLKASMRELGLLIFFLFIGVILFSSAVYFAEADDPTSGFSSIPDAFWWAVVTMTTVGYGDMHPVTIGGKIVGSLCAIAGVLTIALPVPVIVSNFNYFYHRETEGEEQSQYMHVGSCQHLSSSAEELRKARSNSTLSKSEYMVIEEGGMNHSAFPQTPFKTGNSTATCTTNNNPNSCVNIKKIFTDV
Chain of human Kv1.1 channel (human) (Q09470 whole entry): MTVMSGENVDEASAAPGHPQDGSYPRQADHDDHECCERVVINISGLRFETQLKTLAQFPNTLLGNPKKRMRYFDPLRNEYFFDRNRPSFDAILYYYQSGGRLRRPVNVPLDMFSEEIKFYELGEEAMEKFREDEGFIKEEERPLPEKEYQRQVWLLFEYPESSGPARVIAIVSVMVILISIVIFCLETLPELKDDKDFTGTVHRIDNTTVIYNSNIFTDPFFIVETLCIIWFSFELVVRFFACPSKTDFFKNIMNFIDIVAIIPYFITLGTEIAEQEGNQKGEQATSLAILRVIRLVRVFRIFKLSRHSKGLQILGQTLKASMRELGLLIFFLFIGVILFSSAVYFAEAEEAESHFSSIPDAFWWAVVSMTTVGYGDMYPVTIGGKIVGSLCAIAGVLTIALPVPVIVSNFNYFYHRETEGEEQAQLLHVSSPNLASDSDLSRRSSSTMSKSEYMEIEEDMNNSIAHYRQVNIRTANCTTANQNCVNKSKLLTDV

For PEG-Fc-L10-OSK1, Pool # 2 (Fc fusion), the IC50 Sustained [1] was 0.332 nM.

OSK1 (wild-type) (peptide) gave a Kv1.1 IC50, whole cell patch clamp ePhys [2] of 0.202 nM, a Kv1.3 IC50, whole cell patch clamp ePhys [1] of 0.039 nM and a Kv1.3 Selectivity (=Kv1.1/Kv.3 IC50) [1] of 5 fold.

Work on “E. coli-derived Fc-L-ShK[2-35] (Fc fusion)” yielded a Kv1.3 IC50 by IWQ (nM), CHO/Kv1.3 cells [1] of 2.8 nM and a Kv1.3 IC50 by WCVC (nM), HEK293/Kv1.3 cells [1] of 1.3 nM.

Work on “PEG-Fc-L10-SHK(2-35), Pool # 2 (Fc fusion)” yielded an IC50 Sustained [1] of 0.158 nM.

“E. coli-derived Shk[1-35]-L-Fc (Fc fusion)” showed a Kv1.3 IC50 by IWQ (nM), CHO/Kv1.3 cells [1] of 2.4 nM.

GGGGS-Osk1 (peptide) gave a WB/IFNg IC50 (human whole blood IFNg response) [1] of 2.2 nM and a WB/IL-2 IC50 (human whole blood IL-2 response) [1] of 1.36 nM.

20k PEG-ShK (peptide) was tested, and the WB/IFNg IC50 (human whole blood IFNg response) [1] was 0.065 nM and the WB/IL-2 IC50 (human whole blood IL-2 response) [1] was 0.046 nM.

Work on Fc-L5-ShK[2-35] (Fc fusion) yielded an IC50 of block of outward potassium current, whole cell patch clamp [1] of 0.1 nM.

Work on synthetic OSK1 toxin peptide yielded an IC50 of block of outward potassium current, whole cell patch clamp [1] of 0.039 nM.

“E. coli-derived Fc-L-ShK[1-35] (Fc fusion)” showed a Kv1.3 IC50 by WCVC (nM), HEK293/Kv1.3 cells [1] of 1.4 nM.

PEG-Fc-L10-OSK1, Pool # 3 (Fc fusion) gave an IC50 Sustained [1] of 0.256 nM.

With 20k PEG-OSK1[Ala29, 1Nal34] (peptide) the WB/IFNg IC50 (human whole blood IFNg response) [1] was 0.081 nM and the WB/IL-2 IC50 (human whole blood IL-2 response) [1] was 0.049 nM.

Work on Fc-L25-ShK[2-35] (Fc fusion) yielded an IC50, whole cell patch clamp on HEK293/Kv1.3 cells [1] of 0.15 nM.

Work on “E. coli-derived ShK[2-35]-L-Fc (Fc fusion)” yielded a Kv1.3 IC50 by IWQ (nM), CHO/Kv1.3 cells [1] of 4.9 nM.

For “PEG-Fc-L10-SHK(2-35), Pool # 3 (Fc fusion)”, the IC50 Sustained [1] was 0.175 nM.

For OSK1 analogue E16K, K20D (peptide), the WB/IFNg IC50 (human whole blood IFNg response) [1] was 1.32 nM and the WB/IL-2 IC50 (human whole blood IL-2 response) [1] was 1.58 nM.

E. coli-derived Fc-L-OSK1 (Fc fusion) showed a Kv1.3 IC50 by WCVC (nM), HEK293/Kv1.3 cells [1] of 3.2 nM.

For “CHO-derived Fc-L10-ShK[2-35] (Fc fusion)”, the IC50 of block of outward potassium current, whole cell patch clamp [1] was 0.115 nM.

SCIDTIPKSRCTAFQCKHSMKYRLSFCRKTCGTC (not fully specified; ends and bridges not checked) [synthetic ShK[2-35]] showed an IC50 of block of outward potassium current, whole cell patch clamp [3] of 0.049 nM.
